The source of these data is patent US20210292393A1 (published 2021).

Where a chain is given by its changes, count along the chain named. A value given as a limit tells only on which side of the number the result lay.

B1: antibody 324 (antibody, V domains shown)
VH: QVQLQESGPGLVKPSGTLSLTCAVSGGSISSSNWWSWVRQPPGKGLEWIGEIYHSGSTNYNPSLKSRVTISVDNSKNQFSLKLSSVTAADTAVYYCARESVAAAGISYYYYGMDVWGQGTTVTVSS
VL: EIVLTQSPGTLSLSPGERATLSCRASQSVSGRYLAWYQQKPGQAPRLLIYGASSRATGIPDRFSGSGSGTDFTLTISRLEPEDFAVYYCQHYGSSPGTFGQGTRLEIK
B2: antibody 328 (antibody, V domains shown)
VH: B1 VH
VL: DIQMTQSPSSLSASVGDRVTITCRASQGIRNDLGWYQQKPGKAPKRLIYAASSLQSGVPSRFSGSGSGTEFTLTVSGLQPEDFATYYCLQYNSSPLTFGGGTKVEIK
B3: antibody 323 (antibody, V domains shown)
VH: QVQLVQSGAEVKKPGASVKVSCKVSGYTLTELSMHWVRQAPGKGLEWMGGFDPEDGETIYAQKFQGRVTMTEDTSTDTAYMELSSLRSEDTAVYYCATSTIFAPGGWFDPWGQGTLVTVSS
VL: QSALTQPASVSGSPGQSITISCTGTSSDVGSYNLVSWYQQHPGKAPKLMIYEVSKRPSGVSNRFSGSKSGNTASLTISGLQAEDEADYYCCSYAGSTHYVFGTGTKVTVL
B4: antibody 320 (antibody, V domains shown)
VH: QVQLVQSGAEVKKPGASVKVSCKASGYTFTSYGISWVRQAPGQGLEWMGWISAYNGNTNYAQKLQGRVTMTTDTSTRTAYMELRSLRSDDTAVYYCARVGCYYDSSGYSCAENFQHWGQGTLVTVSS
VL: QSVLTQPPSVSGAPGQRVTISCTGSSSNIGAGYDVHWYQQLPGTAPKLLIYGNSNRPSGVPDRFSGSKSGTSASLAITGLQAEDEADYYCQSYDSSLSALFGGGTKLTVL
B5: antibody 329 (antibody, V domains shown)
VH: EVQLVESGGGLVQPGGSLRLSCAASGFTFSSYWMHWVRQAPGKGLVWVSRINSDGSSTSYADSVKGRFTISRDNAKNTLYLQMNSLRAEDTAVYYCAREGIVATITLDYWGQGTLVTVSS
VL: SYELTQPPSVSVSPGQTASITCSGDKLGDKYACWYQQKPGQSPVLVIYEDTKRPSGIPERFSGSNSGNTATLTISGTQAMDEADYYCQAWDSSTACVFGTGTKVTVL
B6: antibody 515 (antibody, V domains shown)
VH: EVQLVESGGGLVKPGGSLRLSCAASGFTFSSYSMNWVRQAPGKGLEWVSSISSSSSYIYYADSVKGRFTISRDNAKNSLYLQMNSLRAEDTAVYYCASIAAAGTLYYYYGMDVWGQGTTVTVSS
VL: not shown
B7: antibody 525 (antibody, V domains shown)
VH: QVQLVESGGGVVQPGRSLRLSCAASGFTFSSYAMHWVRQAPGKGLEWVTVISYNGRNKYYADSVKGRFTISRDNSKNTLYLQMNSLRAEDTAVYWCAREGLGAIVVGLDYWGQGTLVIVSS
VL: not shown
B8: antibody 552 (antibody, V domains shown)
VH: QVQLVQSGAEVKKPGSSVKVSCKASGGTFSSYGISWVRQAPGQGLEWMGRIIPILGIANYAQKFQGRVTITADKSTSTAYMELSSLRSEDTAVYYCARAVYAAGDDDYYYYYGMDVWGQGTTVTVSS
VL: SYELTQPPSVSVSPGQTARITCSGDALPKQYAYWYQQKPGQAPVVVIYKDSDRPSGIPERFSGSSSGTTVTLTISGVQAEDEADYYCQSADSSGTYQVFGTGTKVSVL
B9: antibody 513 (antibody, V domains shown)
VH: QVQLVESGGGVVQPGRSLRLSCAASGFTFSSYAMHWVRQAPGKGLEWVAVISYDGSNKYYADSVKGRFTISRDNSKNTLYLQMNSLRAEDTAVYYCARAGSGSYYNWFDPWGQGTLVTVSS
VL: QSALTQPASVSGSPGQSITISCTGTSSDVGGYNYVSWYQQHPGKAPKLMIYEVSNRPSGVSNRFSGSKSGNTASLTISGLQAEDEADYYCSSYTSSSTPYVFGTGTKVTVL
B10: antibody 520 (antibody, V domains shown)
VH: QVQLVESGGGVVQPGRSLRLSCAASGFTFSSYAMHWGRQAPGKGLEWVAVISYDGSNKYYADSVKGRFTISRDNSKNTLYLQMNSLRAEDTAVYYCARDGGSGWLLVGNWFDPWGQGTLVTVSS
VL: B9 VL with E52D, S97I, P99L
notes: also called mAb 520
B11: antibody 518 (antibody, V domains shown)
VH: B9 VH with R98K, A99P, G100Y, Y105W, N106D, W107A, P110I, L116M
VL: not shown
B12: antibody 562 (antibody, V domains shown)
VH: B9 VH with G100S, S103G, Y105Q, N106G, W107P
VL: QSALTQPASVSGSPGQSITISCTGTSSDVGGYNYVSWYQQHPGKAPKLMIYDVSNRPSGVSNRFSGSKSGNTASLTISGLQAEDEADYYCSSYTSSSTLLYVFGTGTKVTVLG
B13: antibody 558 (antibody, V domains shown)
VH: B9 VH with A99G, G100Q, S101G, S103G, N106Y, W107G, F108M, P110V, L116T
VL: B9 VL with E52D, P99L
B14: antibody 557 (antibody, V domains shown)
VH: B9 VH with A99M, G100Y, Y105R, N106G, W107G, P110Y
VL: not shown
B15: antibody 528 (antibody, V domains shown)
VH: QVQLVQSGAEVKKPGSSVKVSCKASGGTFNSNSISWVRQAPGQGLEWMGRIIPILDITMYARKFQGRVTISADKSTGTAYMDLSSLRSEDTAVYYCATDRDDSSGDYYYGMDVWGQGTTVTVSS
VL: DIQMTQSPSSLSASVGDRVTITCRASLSISNYLNWYQQKPGKAPNLLIYAASTLQSGVPSRFSGSGSGTDFTLTISSLQPEDFATYYCQQTYITRWTFGQGTKVEIK
notes: also called mAb 528
B16: antibody 530 (antibody, V domains shown)
VH: EVQLVESGGGLVQPGGSLRLSCAASGFTFSSYWMSWVRQAPGKGLEWVANIKQDGSEKYYVDSVKGRFTISRDNAKNSLYLQMNSLRAEDTAVYYCAREPQLWSEYYFDYWGQGTLVTVSS
VL: DIQMTQSPSSLSASVGDRVTITCRASQGISSWLAWYQQKPEKAPKSLIYAASSLQSGVPSRFSGSGSGTDFTLTISSLQPEDFATYYCQQYNSYPPTFGQGTRLEIK
notes: also called mAb 530
B17: antibody 554 (antibody, V domains shown)
VH: QVQLVESGGGVVQPGRSLRLSCAASGFTFSSYAMHWVRQAPGKGLEWVAVISYDGSNKYYADSVKGRFTISRDNSKNTLYLQMNSLRAEDTAVYYCARPQGGNYYYYGMDVWGQGTTVTVSS
VL: B16 VL with L11V, E41G, S46L, Y91A, Y94F, P96L, Q100G, R103K, L104V
B18: antibody 535 (antibody, V domains shown)
VH: EVQLVESGGGLIQPGGSLRLSCAASGFTVSSNYMSWVRQAPGKGLEWVSVIYSGGSTYYADSVKGRFTISRDNSKNTLYLQMNSLRAEDTAVYYCARDLTEEGDFWSASSYRRYYYYGMDVWGQGTTVTVSS
VL: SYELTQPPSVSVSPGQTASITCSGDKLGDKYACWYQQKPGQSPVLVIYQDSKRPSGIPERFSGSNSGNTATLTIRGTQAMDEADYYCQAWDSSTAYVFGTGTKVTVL
B19: antibody 559 (antibody, V domains shown)
VH: QVQLQESGPGLVKLSETLSLTCTVSGYSISSGYYWGWIRQPPGKGLEWIGSIYHSGSTYYNPSLKSRVTISVDTSKNQFSLKLSSVTAADTAVYYCAREETLGSSWYESYIDYWGQGTLVTVSS
VL: SYVLTQPPSVSVAPGKTARITCGGNNIGSKSVHWYQQKPGQAPVLVIYYDSDRPSGIPERFSGSNSGNTATLTISRVEAGDEADYYCQVWDSSSDHPRVFGGGTKLTVL
B20: antibody 585 (antibody, V domains shown)
VH: QVQLVESGGGVVQPGRSLRLSCAASGFTFATYAMHWVRQAPGKGLEWVALISHDGSNKHYADSVKGRFTISRDNSKKTLYLQMNSLRAEGTAIYYCARESLEAAAPPFDYWGQGTLVTVSS
VL: SYELTQPPSVSVSPGQTATIICSGDKLGEKYASWYQQKPGQSPALVIYQDRKRPSGIPERFSGSNSGNTATLTISGTQAMDEADYYCQAWDSSNSVVFGGGTKLTVP
B21: antibody 506 (antibody, V domains shown)
VH: QITLKESGPTLVKPTQTLTLTCTFSGFSLSTSGVGVGWIRQPPGKALEWLALIYWDDDKRYSPSLKSRLTITKDTSKNQVVLTMTNMDPVDTATYYCAHHSLSSIFDYWGQGTLVTVSS
VL: QSALTQPASVSGSPGQSITISCTGTSSDVGDYNYVSWYQQHPGKAPKLMIYEVSNRPSGVSNRFSGSKSGNTASLTISGLQAEDEADYYCSSYTSSSTVFGGGTKLTVLG

One assay has as its target SARS-CoV spike protein (SARS-CoV, UniProt P59594 14-1190).
Assay: not given
Consider B1, for which the “median fluorescence intensity, fold over isotype control” value (shortened to “median fluorescence intensity, fold”) was 1.14 fold over isotype.

B2: the “median fluorescence intensity, fold” value is 1.22 fold over isotype.

Turning to B3, the “median fluorescence intensity, fold” value was determined as 1.29 fold over isotype.

For B4, the “median fluorescence intensity, fold” value came to 989 fold over isotype.

As for B5, the “median fluorescence intensity, fold” value was determined as 2.46 fold over isotype.

The target of a further assay is T1, SARS-CoV-2 spike protein (SARS-CoV-2, UniProt P0DTC2 14-1208).
T1 construct: also called SARS-CoV-2 S protein; antigen of interest
Put plainly: HT-SPR, Carterra LSA; mAb coupled to chip, antigen injected; 1:1 fit.
B6 gave a Kd of 44.2 nM, a koff of 0.00134 s⁻¹ and a kon of 30200 M⁻¹ s⁻¹.

B7 had an equilibrium dissociation constant (Kd) of 0.107 nM, a koff of 3.94e-05 s⁻¹ and a kon of 367000 M⁻¹ s⁻¹.

B8 gave an equilibrium dissociation constant (Kd) of 0.0393 nM, a dissociation rate constant (koff) of 1.01e-05 s⁻¹ and an on-rate constant (kon) of 258000 M⁻¹ s⁻¹.

B9 registered a dissociation constant Kd of 0.0996 nM, an off-rate constant (koff) of 2.62e-05 s⁻¹ and a kon of 263000 M⁻¹ s⁻¹.

B10 registered a dissociation constant Kd of at most 0.229 nM, a koff of at most 1e-05 s⁻¹ and an on-rate constant (kon) of 43600 M⁻¹ s⁻¹.

The molecule B11 showed a Kd of 0.0685 nM, a koff of 2.75e-05 s⁻¹ and a kon of 401000 M⁻¹ s⁻¹.

For the molecule B12, binding was characterised by a dissociation constant (Kd) of 0.0211 nM, the koff is 1.16e-05 s⁻¹ and the kon came out at 548000 M⁻¹ s⁻¹.

For B13, the Kd was found to be 0.237 nM, the koff came to 8.94e-05 s⁻¹ and the association rate constant (kon) was determined as 378000 M⁻¹ s⁻¹.

The molecule B14 registered a Kd of 0.144 nM, a koff of 3.35e-05 s⁻¹ and an on-rate (kon) of 233000 M⁻¹ s⁻¹.

B15 yielded a dissociation constant (Kd) of 0.509 nM, a koff of 0.000285 s⁻¹ and an on-rate constant (kon) of 560000 M⁻¹ s⁻¹.

The molecule B16 displayed a dissociation constant (Kd) of 2.19 nM, an off-rate constant (koff) of 0.000209 s⁻¹ and a kon of 95400 M⁻¹ s⁻¹.

In turn, B17 registered a dissociation constant Kd of 0.129 nM, a koff of 3.5e-05 s⁻¹ and an on-rate constant (kon) of 271000 M⁻¹ s⁻¹.

B18 came in with a dissociation constant (Kd) of 0.395 nM, an off-rate constant (koff) of 4.15e-05 s⁻¹ and an association rate constant (kon) of 105000 M⁻¹ s⁻¹.

B19 displayed a dissociation constant (Kd) of 32.2 nM, an off-rate (koff) of 0.000631 s⁻¹ and an on-rate constant (kon) of 19600 M⁻¹ s⁻¹.

In turn, B20 yielded a Kd of 0.248 nM, a koff of 4.59e-05 s⁻¹ and an on-rate constant (kon) of 185000 M⁻¹ s⁻¹.

The molecule B21 yielded a Kd of 0.523 nM, a koff of 0.00021 s⁻¹ and an on-rate constant (kon) of 401000 M⁻¹ s⁻¹.

In general, Kd refers to the constant that tells how readily two partners part at equilibrium. Usually koff stands for a measure of how fast the partners let go of each other. A lower koff goes with a long-lived complex. What is called kon is the second-order rate constant of association.
